# Experimental data published in patent publication US20200255487A1, “A Cell-Based Seeding Assay for Huntingtin Aggregation” (THE REGENTS OF THE UNIVERSITY OF CALIFORNIA, priority 2017, published 2020).
# B1: preformed mHTT-exon1 seeds: preformed mHTT-exon1 seeds derived from in vitro formed mHTT fibrils by sonication (protein)
# chain: MATLEKLMKAFESLKSFQQQQQQQQQQQQQQQQQQQQQPPPPPPPPPPPQLPQPPPQAQPLLPQPQPPPPPPPPPPGPAVAEEPLHRP
# Tested on: HTT-ΔN17-46Q-GFP
# Experiment: cell-based HTT seeding assay (ΔN17-1E cells)
# Set-up: species or system human
# Details: ΔN17-1E (HEK293) cells; substance applied as seed; FIG. 4
# Text: Described herein is the development of a cell-based HTT seeding assay. A DNA construct encoding Exon1 of mutant human HTT with a 46 polyQ repeat was designed (FIG. 1C). This mutant HTT was engineered to delete amino acid residues 2-16 and was fused with a green fluorescent protein (GFP) at its C-terminus, named HTT-ΔN17-46Q-GFP hereafter. The HTT-ΔN17-46Q-GFP was then cloned into a pcDNA3 vector and transfected into HEK293 cells. Clones of stably transfected cells expressing HTT-ΔN17-46Q-GFP were selected to generate individual cell lines. Expression of the transgene in the cell lines was characterized to confirm its morphology, expression level and subcellular localization. Line 1E, named ΔN17-1E cells, was selected based on it moderate transgene expression with minimal protein aggregates at the baseline. Based on this cell line, a cell-based HTT seeding assay was developed. Extracellular application of preformed HTT aggregates or biosamples from HD patients as “seeds”, to ΔN17-1E cells could induce intracellular aggregation of HTT-ΔN17-46Q-GFP proteins (FIG. 1 through FIG. 3). […] Currently, the assay has been optimized to be performed in a high-throughput format, making it more capable with large quantity of samples. […]
molecule,measurement,value
B1,induction of intracellular HTT-ΔN17-46Q-GFP aggregation by extracellularly applied seeds,forms HTT-ΔN17-46Q-GFP aggregates
